Measurements: the supplement of paper PMC7877785
± gives the uncertainty stated by the source.

Test: self-splicing fitness, log relative to wild type (ln ratio); higher = more splicing; Tetrahymena group I intron in knt gene, E. coli kanamycin selection, DiMSum; sequences stand for … in CUCUCU…GGAGGGAAAAGUUAUCAGGCAUGCACCUGGUAGCUAGUCUUUAAACCAAUAGAUUGCAUCGGUUUAAAAGGCAAGACCGUCAAAUUGCGGGAAAGGGGUCAACAGCCGUUCAGUACCAAGUCUCAGGGGAAACUUUGAGAUGGCCUUGCAAAGGGUAUGGUAAUAAGCUGACGGACAUGGUCCUAACCACGCAGCCAAGUCCUAAGUCAACAGAUCUUCUGUUGAUAUGGAUGCAGUUCACAGACUAAAUGUCGGUCGGGGAAGAUGUAUUCUUCUCAUAAGAUAUAGUCGGACCUCUCCUUAAUGGGAGCUAGCGGAUGAAGUGAUGCAACACUGGAGCCGCUGGGAACUAAUUUGUAUGCGAAAGUAUAUUGAUUAGUUUUGGAGUACUCGUGGUCG
Summary of the method: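 The eight P1ex-region nucleotides of an intron in the knt kanamycin-resistance gene on pET-22b(+) were all randomised and the library put into E. coli BL21(DE3). Six replicate transformations were grown overnight at 37°C or 30°C on LB agar with or without 25 μg/mL kanamycin, together with 100 μg/mL carbenicillin, 50 μM IPTG and 0.2% rhamnose. Colonies were pooled and amplicon-sequenced on an Illumina HiSeq 2500. Fitness from DiMSum is the error-weighted combination of wild-type-normalised replicate fold changes, kanamycin over none.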

Sequence | self-splicing fitness (ln) (30 °C) | self-splicing fitness (ln) (37 °C)
CUCCAGCAAUAUUACGAAGC | -3.5 ± 0.23 | -2.6 ± 0.32
GACUAGCAAUAUUACGUUUU | -2.43 ± 0.095 | -1.42 ± 0.11
UAUUAGCAAUAUUACGGACC | -1.51 ± 0.43 | –
AAAAAGCAAUAUUACGAUCC | -0.549 ± 0.12 | 0.153 ± 0.18
GAGUAGCAAUAUUACGACUU | -3 ± 0.15 | -2.63 ± 0.24
CAUCAGCAAUAUUACGGUGC | -3.55 ± 0.43 | -3.74 ± 0.46
CCAGAGCAAUAUUACGUUUA | -3.95 ± 0.29 | -1.78 ± 0.2
UGAAAGCAAUAUUACGGGGU | -3.55 ± 0.2 | -2.48 ± 0.18
ACAAAGCAAUAUUACGUUCG | -1.28 ± 0.049 | -0.0172 ± 0.067
AGGGAGCAAUAUUACGCACG | -2.17 ± 0.49 | -0.794 ± 0.39
UCGUAGCAAUAUUACGGCCA | -0.72 ± 0.13 | -0.85 ± 0.16
AACGAGCAAUAUUACGCGAG | -2.75 ± 0.24 | -2.61 ± 0.25
AUGGAGCAAUAUUACGCGGG | -2.84 ± 0.45 | –
AUAGAGCAAUAUUACGGAGG | -3.24 ± 0.22 | -1.8 ± 0.23
UUAGAGCAAUAUUACGUACA | -1.7 ± 0.26 | -1.51 ± 0.33
UGAGAGCAAUAUUACGUUAA | – | -2.46 ± 0.3
CGGUAGCAAUAUUACGCUUU | -3.21 ± 0.27 | -0.482 ± 0.12
GUGCAGCAAUAUUACGUAUG | -1.86 ± 0.13 | -1.1 ± 0.13
ACUCAGCAAUAUUACGAUAG | -4.03 ± 0.24 | -2.21 ± 0.17
GGCCAGCAAUAUUACGGGCU | -2.4 ± 0.2 | -3.16 ± 0.47
GUUUAGCAAUAUUACGGAGU | -2.3 ± 0.13 | -1.63 ± 0.12
CGAUAGCAAUAUUACGCAAG | -1.97 ± 0.13 | -0.614 ± 0.11
ACUGAGCAAUAUUACGGCCG | -1.89 ± 0.17 | -0.752 ± 0.2
UGCAAGCAAUAUUACGUAAA | -1.9 ± 0.087 | -1.01 ± 0.12
CUGAAGCAAUAUUACGGUCA | -1.38 ± 0.096 | -0.796 ± 0.13

Sequence | self-splicing fitness (ln) (30 °C) | self-splicing fitness (ln) (37 °C)
UGAUAGCAAUAUUACGAGGG | – | -2.38 ± 0.4
UUAGAGCAAUAUUACGGGAA | -2.25 ± 0.16 | -0.296 ± 0.16
UUACAGCAAUAUUACGGACC | -3.25 ± 0.4 | -1.41 ± 0.32
GAAUAGCAAUAUUACGCAUG | -0.0618 ± 0.089 | -0.902 ± 0.091
GCCAAGCAAUAUUACGACCU | -1.34 ± 0.11 | -1.54 ± 0.15
CCACAGCAAUAUUACGUUUC | -4.16 ± 0.22 | -2.44 ± 0.24
CCACAGCAAUAUUACGCAAC | -2.45 ± 0.36 | -1.79 ± 0.33
GCAGAGCAAUAUUACGAUUC | -2.56 ± 0.26 | -0.2 ± 0.22
CUGAAGCAAUAUUACGUCUC | – | -1.47 ± 0.18
AUUAAGCAAUAUUACGCAGG | -2.22 ± 0.19 | -0.608 ± 0.2
UUCGAGCAAUAUUACGUGAG | -1.12 ± 0.067 | -0.0842 ± 0.11
AGCUAGCAAUAUUACGUCUC | -4.51 ± 0.39 | -2.86 ± 0.29
GCAGAGCAAUAUUACGCGAG | -3.58 ± 0.35 | -2.46 ± 0.28
UCACAGCAAUAUUACGGACU | -2.99 ± 0.15 | -2.16 ± 0.14
CGGCAGCAAUAUUACGCAGU | -3.02 ± 0.17 | -2.07 ± 0.29
GGAGAGCAAUAUUACGAUCG | -1.88 ± 0.14 | -0.426 ± 0.16
GUUUAGCAAUAUUACGUGGC | -0.884 ± 0.32 | -1.46 ± 0.33
GAAGAGCAAUAUUACGGAAC | – | -0.903 ± 0.29
UUCUAGCAAUAUUACGGCCC | -1.62 ± 0.41 | –
CCAUAGCAAUAUUACGCUGG | -3.54 ± 0.19 | -2.58 ± 0.2
AGCGAGCAAUAUUACGAUCA | -1.94 ± 0.26 | -2.08 ± 0.37
GAGAAGCAAUAUUACGGCGU | -0.403 ± 0.12 | 0.0558 ± 0.16
UGGCAGCAAUAUUACGCCUU | -1.65 ± 0.14 | -0.596 ± 0.21
GAUGAGCAAUAUUACGAGUG | -3.06 ± 0.17 | -0.833 ± 0.18
AAUUAGCAAUAUUACGUAUU | -2.32 ± 0.18 | -0.913 ± 0.14

Sequence | self-splicing fitness (ln) (30 °C) | self-splicing fitness (ln) (37 °C)
AGAAAGCAAUAUUACGGAAA | -1.63 ± 0.14 | -1.33 ± 0.15
UUCGAGCAAUAUUACGCCGG | -1.98 ± 0.39 | –
GGUUAGCAAUAUUACGCUGA | -3.14 ± 0.14 | -2.24 ± 0.13
ACUCAGCAAUAUUACGCCGC | -2.78 ± 0.28 | -1.78 ± 0.43
GACGAGCAAUAUUACGAAUU | -3.49 ± 0.14 | -2.55 ± 0.14
GCUGAGCAAUAUUACGCGAU | -2.78 ± 0.17 | -2.59 ± 0.25
CGACAGCAAUAUUACGUUAC | -3.39 ± 0.17 | -2.29 ± 0.2
GCUCAGCAAUAUUACGGGCG | -1.61 ± 0.071 | -1.22 ± 0.085
UGGCAGCAAUAUUACGGCUG | -3.05 ± 0.33 | -2.38 ± 0.46
CUGAAGCAAUAUUACGGCGG | -0.674 ± 0.073 | -0.503 ± 0.1
CCCUAGCAAUAUUACGGUAG | -3.6 ± 0.16 | -3.5 ± 0.21
CGGCAGCAAUAUUACGGUCA | -0.0453 ± 0.068 | -0.156 ± 0.083
UAUCAGCAAUAUUACGUGCA | -0.589 ± 0.054 | 0.447 ± 0.078
AGCCAGCAAUAUUACGAUGC | -3.79 ± 0.47 | -0.986 ± 0.2
AGGCAGCAAUAUUACGGCAA | -0.539 ± 0.069 | -1.11 ± 0.085
UAGAAGCAAUAUUACGAAUU | -2.42 ± 0.46 | -1.29 ± 0.27
UCGCAGCAAUAUUACGCUGA | -2.33 ± 0.21 | -1.15 ± 0.14
GCGCAGCAAUAUUACGUGAU | -0.659 ± 0.063 | 0.488 ± 0.083
AACAAGCAAUAUUACGUGGA | -2.59 ± 0.11 | -1.51 ± 0.094
GCAUAGCAAUAUUACGCCUC | -1.01 ± 0.23 | -0.756 ± 0.28
GGUUAGCAAUAUUACGGUGG | – | -1.57 ± 0.31
AACGAGCAAUAUUACGUAUC | -3.69 ± 0.4 | -3.55 ± 0.46
UUCCAGCAAUAUUACGCGAA | -1.64 ± 0.079 | -0.865 ± 0.089
GGAUAGCAAUAUUACGAAAC | -1.67 ± 0.31 | -0.834 ± 0.23
CUCUAGCAAUAUUACGUUAG | -3.81 ± 0.24 | -2.13 ± 0.22

Sequence | self-splicing fitness (ln) (30 °C) | self-splicing fitness (ln) (37 °C)
GUAUAGCAAUAUUACGGCAU | -0.587 ± 0.081 | -0.661 ± 0.1
ACGAAGCAAUAUUACGGCAU | -0.981 ± 0.1 | 0.219 ± 0.11
ACGGAGCAAUAUUACGUCAA | -2.71 ± 0.39 | -2.94 ± 0.36
ACGUAGCAAUAUUACGUUCC | -3.29 ± 0.24 | -2.04 ± 0.23
ACCCAGCAAUAUUACGUAAG | -1.13 ± 0.049 | -0.47 ± 0.069
CAACAGCAAUAUUACGCCCU | -1.96 ± 0.086 | -1.24 ± 0.1
GUUGAGCAAUAUUACGUACC | -1.75 ± 0.36 | –
AGUCAGCAAUAUUACGUCCA | -1.25 ± 0.13 | -1.05 ± 0.15
AGAGAGCAAUAUUACGCGAG | -2.97 ± 0.34 | –
CUACAGCAAUAUUACGAUGA | -3.02 ± 0.19 | -2.13 ± 0.14
CAUUAGCAAUAUUACGGGUU | -2.27 ± 0.11 | -0.829 ± 0.12
CCUGAGCAAUAUUACGCACA | -1.53 ± 0.17 | -1.6 ± 0.35
AGCAAGCAAUAUUACGGGGU | -2.45 ± 0.15 | -2 ± 0.12
UGGCAGCAAUAUUACGAGAC | -3.74 ± 0.48 | -1.09 ± 0.45
GUGUAGCAAUAUUACGAAAU | -1.47 ± 0.1 | -1.1 ± 0.14
CAGUAGCAAUAUUACGGCGG | -0.246 ± 0.081 | -0.627 ± 0.091
ACGGAGCAAUAUUACGACAU | -1.947 ± 0.018 | -1.1 ± 0.035
CUUGAGCAAUAUUACGUCCG | -1.86 ± 0.19 | -0.79 ± 0.19
CAGUAGCAAUAUUACGCCUG | -2.42 ± 0.25 | -2.46 ± 0.44
AACUAGCAAUAUUACGGGUG | -0.377 ± 0.049 | -0.0736 ± 0.07
CAUAAGCAAUAUUACGUAGG | -0.808 ± 0.066 | -0.719 ± 0.084
CUUCAGCAAUAUUACGGAUU | -2.13 ± 0.18 | -1.75 ± 0.16
AGGGAGCAAUAUUACGGUCA | -2.38 ± 0.18 | -2.08 ± 0.21
